Results reported in patent publication US20080227085A1, “Methods and Systems for the Identification of Rna Regulatory Sequences and Compounds that Modulate their Function” (priority 2003, published 2008).

Tested on: general translation (reporter mRNA encoding firefly luciferase)
Assay: Inhibition of reporter mRNA translation by HCV-IRES RNA fragments in in vitro translation system (RRL, firefly luciferase)
Type: biochemical, rabbit
Conditions: RNA fragments preincubated with in vitro translation system before Fy Luc reporter mRNA; FIG. 3
Protocol: FIG. 3. […] An in vitro translation system was preincubated with the RNA fragments before addition of the reporter mRNA construct encoding firefly luciferase (Fy Luc). The inhibitory effects of each of the fragments on general translation were determined by monitoring luciferase activity upon addition of substrate. […] Domain I not analyzed due to lack of any predicted secondary structure.
The plasmid pGEM3-HCV2b-IRES contains sequence coding for nucleotides 18 to 356 (SEQ ID NO: 1) of HCV-IRES RNA (genotype 2b) inserted at the BamHI restriction endonuclease site of the cloning vector pGEM-3 (Promega Corp., Madison, Wis.; FIG. 2A). RNA secondary structure prediction algorithms, as well as biochemical and genetic data, support a representation of this sequence as shown in FIG. 2B. […]
Translation reactions were performed in vitro to determine the inhibitory effect of HCV IRESIII RNA and fragments thereof and contained (20 μl): 4 μl pre-treated RRL, 4 μl 5× Reaction Buffer A, 5 μl of HCV IRES RNA (1 μM in 20% B), 5 μl mRNA ([…]), and 2 μl 10% DMSO. […] Translation reaction was stopped and Luciferase activity was measured using ViewLux™ (Perkin-Elmer Scientific Instruments, Boston, Mass.; detector set at 10 sec measurement and 6× binning; FIG. 3) upon the addition of 50 μl LucLite-Plus™ luciferase assay reagent (Promega Corp., Madison, Wis.). […]

B1: domain III: domain III RNA fragment of the HCV-IRES UTR (SEQ ID NO: 26), minimal RNA element required for efficient translation inhibition (nucleic acid)
chain: GGCCCCCCCCUCCCGGGAGAGCCAUAGUGGUCUGCGGAACCGGUGAGUACACCGGAAUUACCGGAAAGACUGGGUCCUUUCUUGGAUAAACCCACUCUAUGUCCGGUCAUUUGGGCGUGCCCCCGCAAGACUGCUAGCCGAGUAGCGUUGGGUUGCGAAAGGCCUUGUGGUACUGCCUGAUAGGGUGCUUGCGAGUGCCCCGGGAGGUCUCGUA
modifications: Hepatitis C virus; domain III of HCV-UTR RNA
- inhibition of translation of the reporter (luciferase activity): majority of inhibitory activity resides in domain III
